What was measured:
Test in all cases: cell-based or functional assay
双组分毒素HlgA+LukF = 双组分毒素HlgA+LukF (金黄色葡萄球菌 (Staphylococcus aureus), UniProt P0A074 30-309; P31715 26-323)
双组分毒素HlgAB = 双组分毒素HlgAB (金黄色葡萄球菌 (Staphylococcus aureus), UniProt P0A074 30-309; P0A077 26-325)
双组分毒素HlgA+LukD = 双组分毒素HlgA+LukD (金黄色葡萄球菌 (Staphylococcus aureus), UniProt P0A074 30-309; O54082 27-327)

Measured: 兔红细胞溶血中和 (上清OD405)

B1: 鼠源抗原结合蛋白17C7 (antibody, V domains shown)
VH: EVQLQQSGAELVRSGASVKLSCTASGFNIKDYYMHWVKQRPEQGLEWIGWIDPENDIGEYAPKFQGKATMTADTSSNTAYLQLSSLTSEDTAVYFCNALWGGVLDYWGQGTSVTVSA
VL: DVVMTQTPLSLPVSLGDQASISCRSSQSLVNSNGNTYLHWYLQKPGQSPNLLIYRVSNRFSGVPDRFSGSGSGTDFTLKISRVEAEDLGVYFCSQSTHVPYTFGGGTKLEIKR
4 µg: all assays above
